Assay results from US20240254201A1 (ACADEMY OF MILITARY MEDICAL SCIENCE PLA, published 2024).

T1: RESTV GP (RESTV, UniProt Q66799 34-638)
T1 sequence: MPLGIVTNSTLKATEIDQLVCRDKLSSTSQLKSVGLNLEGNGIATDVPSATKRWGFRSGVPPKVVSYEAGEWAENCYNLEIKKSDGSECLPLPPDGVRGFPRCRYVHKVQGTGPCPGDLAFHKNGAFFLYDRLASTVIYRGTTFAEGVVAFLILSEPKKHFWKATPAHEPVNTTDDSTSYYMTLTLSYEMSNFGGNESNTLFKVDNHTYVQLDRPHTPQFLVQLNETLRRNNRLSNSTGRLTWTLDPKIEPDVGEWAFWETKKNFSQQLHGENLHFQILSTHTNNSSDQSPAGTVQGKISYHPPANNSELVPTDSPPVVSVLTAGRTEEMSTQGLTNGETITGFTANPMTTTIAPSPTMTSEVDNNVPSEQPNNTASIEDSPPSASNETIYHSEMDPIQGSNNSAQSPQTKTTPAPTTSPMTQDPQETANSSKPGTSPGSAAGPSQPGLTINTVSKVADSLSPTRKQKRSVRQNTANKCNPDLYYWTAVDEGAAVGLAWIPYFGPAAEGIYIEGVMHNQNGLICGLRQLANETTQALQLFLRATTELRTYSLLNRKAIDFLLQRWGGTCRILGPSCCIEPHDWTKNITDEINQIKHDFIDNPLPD

T2: SUDV GP (Sudan ebolavirus (SUDV), UniProt Q7T9D9 33-637)
T2 construct: also called Sudan ebolavirus GP
T2 sequence: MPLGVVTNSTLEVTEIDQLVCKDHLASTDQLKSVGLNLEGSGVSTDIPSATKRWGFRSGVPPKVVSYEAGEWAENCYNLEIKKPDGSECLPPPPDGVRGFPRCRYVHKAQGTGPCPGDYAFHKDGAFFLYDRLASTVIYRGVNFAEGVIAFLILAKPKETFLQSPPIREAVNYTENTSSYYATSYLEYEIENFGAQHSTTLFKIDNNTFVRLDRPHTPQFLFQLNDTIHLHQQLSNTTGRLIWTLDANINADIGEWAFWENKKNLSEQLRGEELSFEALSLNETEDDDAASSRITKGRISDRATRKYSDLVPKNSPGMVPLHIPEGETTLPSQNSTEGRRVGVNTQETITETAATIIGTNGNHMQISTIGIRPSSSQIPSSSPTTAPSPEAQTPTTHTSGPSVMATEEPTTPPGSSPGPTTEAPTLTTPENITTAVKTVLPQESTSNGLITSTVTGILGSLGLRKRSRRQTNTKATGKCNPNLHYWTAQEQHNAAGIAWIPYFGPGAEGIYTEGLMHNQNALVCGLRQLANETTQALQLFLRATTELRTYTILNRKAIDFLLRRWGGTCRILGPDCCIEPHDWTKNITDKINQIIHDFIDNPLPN

T3: EBOV GP on EBOV-eGFP-Mayinga authentic virus (Ebola virus (EBOV), Mayinga, UniProt Q05320 33-676)
T3 sequence: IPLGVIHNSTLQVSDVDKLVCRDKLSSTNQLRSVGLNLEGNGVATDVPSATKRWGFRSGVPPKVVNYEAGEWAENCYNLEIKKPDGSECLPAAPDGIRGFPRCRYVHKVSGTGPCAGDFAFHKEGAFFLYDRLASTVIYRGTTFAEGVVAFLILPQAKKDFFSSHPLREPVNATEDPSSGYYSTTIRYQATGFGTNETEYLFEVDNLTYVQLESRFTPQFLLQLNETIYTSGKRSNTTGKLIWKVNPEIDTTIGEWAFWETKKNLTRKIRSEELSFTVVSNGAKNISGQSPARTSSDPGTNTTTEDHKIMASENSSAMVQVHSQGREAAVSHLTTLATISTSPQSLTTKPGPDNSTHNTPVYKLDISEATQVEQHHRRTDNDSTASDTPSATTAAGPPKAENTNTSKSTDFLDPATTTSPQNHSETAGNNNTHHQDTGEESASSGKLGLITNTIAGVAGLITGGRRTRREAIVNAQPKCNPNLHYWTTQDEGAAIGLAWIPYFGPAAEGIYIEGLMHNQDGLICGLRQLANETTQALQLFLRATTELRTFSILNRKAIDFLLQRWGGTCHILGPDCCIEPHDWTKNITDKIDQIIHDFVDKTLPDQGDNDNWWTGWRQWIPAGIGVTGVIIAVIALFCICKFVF

B1: monoclonal antibody 2G1 (antibody, V domains shown)
VH: EVQLVESGGGLVKRGGSLRLSCVVSGYTFGGYSMHWVRQAPGKGLEWVSGISSSSYYKYYADSVKGRFTISRDNAKNSLYLQMNSLRAEDTAVYYCARDMGYCSGGSCPNFDFWGQGTTVTVSS
VL: DIQMTQSPSSLSASVGDRVTITCRTSQSISNYLNWYQQIPGKAPKLLISTASNLHSGVSSRFSGSGSGTHFTLTISSLQPEDFATYYCQQSYSTPSFGQGTKVEIKR
notes: also called 2G1-WT; wild-type 2G1
B2: MIL77-1 (antibody, V domains shown)
VH: EVALEESGGGLMQPGGSMKLSCVASGFTFSNYWMNWVRQSPEKGLEWVAEIRLKSNNYATHYAESVKGRFTISRDDSKRSVYLQMNTLRAEDTGIYYCTRGNGNYRAMDYWGQGTSVTVSS
VL: DIQMTQSPASLSVSVGETVSITCRASENIYSSLAWYQQKQGKSPQLLVYSATILADGVPSRFSGSGSGTQYSLKINSLQSEDFGTYYCQHFWGTPYTFGGGTKLEIKR

Key:
[1] = target: T4, sGP (Ebola virus (EBOV), UniProt P60170 33-324); assay: ELISA on coated truncated GP
T4 construct: also called secreted glycoprotein

[2] = target: T1, RESTV GP; assay: ELISA, purified antibody on coated GP (1 µg/mL)
[3] = target: T2, SUDV GP; assay: ELISA, purified antibody on coated GP (1 µg/mL)
[4] = target: T3, EBOV GP on EBOV-eGFP-Mayinga authentic …; assay: cell-based or functional assay

Binder	binding result [1]	EC50 [2] [µg/mL]	EC50 [3] [µg/mL]	IC50, EBOV-eGFP-Mayinga authentic virus neutralization test [4] [µg/mL]
B1	no binding	0.026	0.0048	–
B2	–	–	–	3.12
